Experiments:
[1] = target: T1, F protein of human metapneumovirus strain JPS03-178 (type A2), on infectious virus (human metapneumovirus, strain JPS03-178 …); experiment: cell-based or functional assay
[2] = target: T2, F protein of human metapneumovirus strain JPS03-180 (type A1), on infectious virus (human metapneumovirus, strain JPS03-180 …); experiment: cell-based or functional assay
[3] = target: T3, F protein of human metapneumovirus strain JPS02-76 (type B1), on infectious virus (human metapneumovirus, strain JPS02-76 …, UniProt Q6WB98 19-539); experiment: cell-based or functional assay
[4] = target: T4, F protein of human metapneumovirus strain JPS05-21 (type B2), on infectious virus (human metapneumovirus, strain JPS05-21 …); experiment: cell-based or functional assay
[5] = target: T1, F protein of human metapneumovirus …; experiment: cell-based or functional assay; remark: listed apart in the source
[6] = target: T2, F protein of human metapneumovirus …; experiment: cell-based or functional assay; remark: listed apart in the source
[7] = target: T3, F protein of human metapneumovirus …; experiment: cell-based or functional assay; remark: listed apart in the source
[8] = target: T4, F protein of human metapneumovirus …; experiment: cell-based or functional assay; remark: listed apart in the source
[9] = target: T2, F protein of human metapneumovirus …; experiment: cell-based or functional assay; remark: listed apart in the source
[10] = target: T3, F protein of human metapneumovirus …; experiment: cell-based or functional assay; remark: listed apart in the source
[11] = target: T4, F protein of human metapneumovirus …; experiment: cell-based or functional assay; remark: listed apart in the source
[12] = target: T3, F protein of human metapneumovirus …; experiment: cell-based or functional assay; remark: listed apart in the source
[13] = target: T1, F protein of human metapneumovirus …; experiment: cell-based or functional assay; remark: listed apart in the source
[14] = target: T2, F protein of human metapneumovirus …; experiment: cell-based or functional assay; remark: listed apart in the source
[15] = target: T4, F protein of human metapneumovirus …; experiment: cell-based or functional assay; remark: listed apart in the source
[16] = target: T3, F protein of human metapneumovirus …; experiment: cell-based or functional assay; remark: listed apart in the source
[17] = target: FP-TM(-)-His, His-Tag-added hMPV (JPS02-76) FP lacking the transmembrane region (amino acid residues 491 to … (human metapneumovirus, strain JPS02-76 …, UniProt Q6WB98 19-490)); experiment: SPR, Biacore T-200; antibody captured by anti-human IgG, FP-TM(-)-His as analyte
[18] = target: HA-V5-Full, hMPV (JPS02-76) FP with HA-Tag downstream of the signal peptide and linker and V5-Tag do (human metapneumovirus, strain JPS02-76 …); experiment: cell fluorescent immunostaining, fixed transfected CHO-K1 cells

Binder	IC60, neutralizing activity (hMPV infection of LLC-MK2 cells; GraphPad Prism 6) [1] [µg/mL]	IC60, neutralizing activity (hMPV infection of LLC-MK2 cells; GraphPad Prism 6) [2] [µg/mL]	IC60, neutralizing activity (hMPV infection of LLC-MK2 cells; GraphPad Prism 6) [3] [µg/mL]	IC60, neutralizing activity (hMPV infection of LLC-MK2 cells; GraphPad Prism 6) [4] [µg/mL]	IC90, neutralizing activity (hMPV infection of LLC-MK2 cells; GraphPad Prism 6) [5] [µg/mL]	IC90, neutralizing activity (hMPV infection of LLC-MK2 cells; GraphPad Prism 6) [6] [µg/mL]	IC90, neutralizing activity (hMPV infection of LLC-MK2 cells; GraphPad Prism 6) [7] [µg/mL]	IC90, neutralizing activity (hMPV infection of LLC-MK2 cells; GraphPad Prism 6) [8] [µg/mL]	IC50, neutralizing activity (hMPV infection of LLC-MK2 cells) [9] [µg/mL]	IC50, neutralizing activity (hMPV infection of LLC-MK2 cells) [10] [µg/mL]	IC50, neutralizing activity (hMPV infection of LLC-MK2 cells) [11] [µg/mL]	IC50, cell-to-cell spread inhibitory activity (LLC-MK2 cells stably expressing TMPRSS2) [12] [µg/mL]	IC90, cell-to-cell spread inhibitory activity (LLC-MK2 cells stably expressing TMPRSS2) [12] [µg/mL]	IC50, neutralizing activity (hMPV infection of LLC-MK2 cells; GraphPad Prism 6) [13] [µg/mL]	IC50, neutralizing activity (hMPV infection of LLC-MK2 cells; GraphPad Prism 6) [14] [µg/mL]	IC50, neutralizing activity (hMPV infection of LLC-MK2 cells; GraphPad Prism 6) [15] [µg/mL]	Kd [17] [nM]	koff [17] [s⁻¹]	kon [17] [M⁻¹ s⁻¹]	further results
EV046150 (antibody, human IgG1, kappa, V domains shown) VH: RVQLVQSGAEVKKPGSSVRVSCKASGGTFSNYSISWVRQVPGQGLEWMGRIIPILPLSSYPQQFQGRVAITADKSSTTAYMELSSLRIEDTAIYYCARDALRPEGGYYYYYFDVWGTGTTVTVSS VL: EIELTQSPGTLSLSPGERATLSCRANQIIGDTSLAWYQQKPGQAPRLLIFGASSRATGIPDRFSGSGFGSDFTLTITSLEPEDFAVYYCQQYGSSPTFGQGTKVEIKR	0.0373	0.0823	0.36	0.229	0.101	0.292	0.663	0.404	0.049	0.3	0.18	0.0166	0.065	0.0298	0.0618	0.202	–	–	–	–
EV046120 (antibody, human IgG1, lambda, V domains shown) VH: EVQLVESGGGLVKPGGSLRLSCAASGFTFSSYSMNWVRQAPGKGLEWVSSISSSSSYIYYADSLKGRFTVSRDNAKKSLYLQMNSLRAEDTAVYYCARVDYGTNSEVGRFDPWGQGTLVTVSS VL: QSVLTQPPSVSGTPGQRVTISCTGSSSNIGAGYAVHWYQQLPGTAPKLLIYDSINRPSGVPDRFSGSKSGTSASLAITGLQTEDEADYYCHSYDRSLSGSVFGGGTKLTVLG	0.138	0.421	0.344	0.301	0.653	1.88	1.65	0.694	0.32	–	0.24	0.0132	0.0669	0.0971	0.3	0.249	–	–	–	IC50, neutralizing activity (hMPV infection of LLC-MK2 cells; GraphPad Prism 6) [16]: 0.241 µg/mL
EV046116 (antibody, human IgG1, kappa, V domains shown) VH: QVQLQESGPGLVKPSETLSLTCTVSGGSISRDYWSFIRQPAGKGLEWIGRIYHNGDTNYNPSLKSRVTMSQDTSKNQFFLRLRHVTAADTAVYYCAREGSAGTFGQADWGQGTLVIVYS VL: EIVMTQSPATLSVSPGERATLSCRASQSISNNLAWYQQKPGQAPRLLIYGASTRATGIPARFSGGGSGTEFTLTISSLQSEDFAVYYCQQYENWLLYTFGQGTKLEIKR	0.247	0.428	0.497	0.341	0.8	1.03	3	0.828	0.31	0.25	0.25	0.054	0.132	0.19	0.351	0.279	1.62	0.000408	252000	–
EV046113 (antibody, human IgG1, kappa, V domains shown) VH: QVQLVESGGGLVRPGGSLRLSCAASGFTFSDYFMTWIRQAPGKGLEWVSYINSIGSVIFYADSVEGRFTVSRDNTMKSLFLQMNSLTAEDTAVYYCARSCRISYGASGGFSCGMDVWGQGTPVTVSS VL: DIQMTQSPSSLSASVGDRVTITCQASQSIRENINWYQQKTGKAPKLLIYDASILETGVPSRFSGSGSGTHFTFTISSLQPEDMATYYCQQYHHLITFGQGTRLDIKR	0.76	0.522	0.819	0.652	1.56	1.39	1.48	2.29	0.38	0.68	0.39	0.108	0.707	0.645	0.418	0.491	0.265	0.000123	463000	binding result [18]: binds

— patent US20150322137A1 (EVEC, published 2015)
